# Test results published in publication PMC11413682.
# B1: SARS-CoV-2 ORF10 N5 peptide [SARS-CoV-2] / CUL2^ZYG11B (residues 490–728) [human] (parent)
# chain 1: GYINV
# chain 2: ELFIVRQLLQIVKQKTNQNSVDTTLKFTLSALWNLTDESPTTCRHFIENQGLELFMRVLESFPTESSIQQKVLGLLNNIAEVQELHSELMWKDFIDHISSLLHSVEVEVSYFAAGIIAHLISRGEQAWTLSRSQRNSLLDDLHSAILKWPTPECEMVAYRSFNPFFPLLGCFTTPGVQLWAVWAMQHVCSKNPSRYCSMLIEEGGLQHLYNIKDHEHTDPHVQQIAVAILDSLEKHIVR
# Variants of: B1
# Assay: ITC
# Conditions: with CUL2^ZYG11B (residues 490–728) [human]
row,Variant,Kd [µM]
1,chain 1 G1S,13.2
